Test results as given in US20140302524A1.

What was measured:
[1] = target: full-length human LOXL2 protein (human) (UniProt Q9Y4K0); assay: ELISA, LOXL2 coated
[2] = target: full-length human LOXL2 protein (human) (UniProt Q9Y4K0); assay: cell-based or functional assay

UniProt Q9Y4K0, sequence (Q9Y4K0 other isoform, or with tags, fused parts or gaps): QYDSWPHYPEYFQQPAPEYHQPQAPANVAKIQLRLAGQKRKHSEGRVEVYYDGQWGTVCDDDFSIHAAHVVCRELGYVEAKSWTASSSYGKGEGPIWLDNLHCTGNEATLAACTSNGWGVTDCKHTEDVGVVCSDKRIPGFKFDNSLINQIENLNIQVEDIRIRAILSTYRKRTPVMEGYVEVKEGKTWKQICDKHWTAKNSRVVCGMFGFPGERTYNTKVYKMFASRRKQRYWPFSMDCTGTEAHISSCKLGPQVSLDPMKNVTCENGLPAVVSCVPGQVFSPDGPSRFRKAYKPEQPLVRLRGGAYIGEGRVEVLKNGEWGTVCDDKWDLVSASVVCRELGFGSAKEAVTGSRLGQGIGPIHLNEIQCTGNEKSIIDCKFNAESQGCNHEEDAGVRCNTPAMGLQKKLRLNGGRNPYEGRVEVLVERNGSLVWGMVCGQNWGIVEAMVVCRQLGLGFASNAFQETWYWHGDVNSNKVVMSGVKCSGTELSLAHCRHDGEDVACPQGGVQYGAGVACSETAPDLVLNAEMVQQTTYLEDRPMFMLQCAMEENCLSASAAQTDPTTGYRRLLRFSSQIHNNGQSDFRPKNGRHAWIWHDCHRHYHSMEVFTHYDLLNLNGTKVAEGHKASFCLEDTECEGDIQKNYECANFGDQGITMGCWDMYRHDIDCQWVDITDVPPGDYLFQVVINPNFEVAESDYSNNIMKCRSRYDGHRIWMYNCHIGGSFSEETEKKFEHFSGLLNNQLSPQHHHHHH

- Kd [1]: < 1 nM
- IC50′ (nM), inhibition of LOXL2 enzymatic activity (Amplex Red assay); substrate DAP, collagen [2]: 62 nM
B1: AB0023 (antibody, from another filing, V domains shown)
VH: QVQLQQSGAELVRPGTSVKVSCKASGYAFTYYLIEWVKQRPGQGLEWIGVINPGSGGTNYNEKFKGKATLTADKSSSTAYMQLSSLTSDDSAVYFCARNWMNFDYWGQGTTLTVSS
VL: DIVMTQAAPSVSVTPGESVSISCRSSKSLLHSNGNTYLYWFLQRPGQSPQFLIYRMSNLASGVPDRFSGSGSGTAFTLRISRVEAEDVGVYYCMQHLEYPYTFGGGTKLEIK
